{"source": "patent US20230152323A1", "about": "(NORDIC BIOSCIENCE A S, published 2023)", "key": {"[1]": {"molecular_target": "T1, Non-sense coating peptide VPKDLPPDTT-biotin", "T1 construct": "Held on streptavidin-coated plates; also called non-sense biotinylated coating peptide", "T1 peptide": "VPKDLPPDTT-biotin", "assay": "ELISA, peptide coated on a streptavidin plate", "description": "The target sequence was used as the standard peptide ([…]; SEQ ID NO: 1). A biotinylated peptide ([…]-K-biotin; SEQ ID NO:7) was included as a coating peptide with addition of a lysine residue to the C-terminal end to ensure biotin linking. The specificity of the antibody was tested by including an elongated standard peptide with an additional amino acid added to the N-terminal of the target peptide sequence ([…]; SEQ ID NO: 2), a truncated standard peptide with a removal of the first N-terminal amino acid ([…]; SEQ ID NO: 3) as well as a non-sense standard peptide ([…]; SEQ ID NO: 4) and a non-sense biotinylated coating peptide ([…]-biotin; SEQ ID NO: 5) in the assay validation. Four peptides (Von Willebrand factor, glucagon, SPARC-like protein 1 and ADAMTS15) with one amino acid mismatch compared to the first six amino acids in the target sequence were also included to further test the antibody specificity. The immunogenic peptide ([…]-GGC-KLH; SEQ ID NO: 6) was generated by covalently cross-linking the standard peptide to Keyhole Limpet Hemocyanin (KLH) carrier protein using Succinimidyl 4-(N-maleimidomethyl)cyclohexane-1-carboxylate, SMCC (Thermo Scientific, Waltham, MA, USA, cat.no. 22336). Glycine and cysteine residues were added at the C-terminal end to ensure right linking of the carrier protein. […]"}, "[2]": {"molecular_target": "T2, SPARC-like protein 1 (SLP1) peptide LLLRDFKKNY (human)", "T2 construct": "A peptide was tested, not the whole protein", "T2 peptide": "LLLRDFKKNY", "assay": "competitive SPARC-M ELISA, peptide as competitor", "description": "(§1) The specificity of the antibody was tested by including an elongated standard peptide with an additional amino acid added to the N-terminal of the target peptide sequence ([…]; SEQ ID NO: 2), a truncated standard peptide with a removal of the first N-terminal amino acid ([…]; SEQ ID NO: 3) as well as a non-sense standard peptide ([…]; SEQ ID NO: 4) and a non-sense biotinylated coating peptide ([…]-biotin; SEQ ID NO: 5) in the assay validation. Four peptides (Von Willebrand factor, glucagon, SPARC-like protein 1 and ADAMTS15) with one amino acid mismatch compared to the first six amino acids in the target sequence were also included to further test the antibody specificity. The immunogenic peptide ([…]-GGC-KLH; SEQ ID NO: 6) was generated by covalently cross-linking the standard peptide to Keyhole Limpet Hemocyanin (KLH) carrier protein using Succinimidyl 4-(N-maleimidomethyl)cyclohexane-1-carboxylate, SMCC (Thermo Scientific, Waltham, MA, USA, cat.no. 22336). Glycine and cysteine residues were added at the C-terminal end to ensure right linking of the carrier protein.\n(§2) A 96-well streptavidin-coated microtiter plate was coated with 1.1 ng/mL biotinylated coating peptide dissolved in assay buffer (50 mM Tris-BTB, 4 g/L NaCl, pH 8.0) and incubated for 30 min. at 20° C. in darkness shaking (300 rpm). Twenty µL standard peptide or pre-diluted serum (1:4) were added to appropriate wells, followed by the addition of 100 µL monoclonal antibody dissolved in assay buffer to a concentration of 14 ng/mL to each well and incubated 1 hour at 20° C. in darkness shaking (300 rpm). One hundred µL of goat anti-mouse POD-conjugated IgG antibody (Thermo Scientific, Waltham, MA, USA, cat. #31437) diluted 1:6000 in assay buffer was added to each well and incubated 1 hour at 20° C. in darkness shaking. All incubation steps were followed by five washes in washing buffer (20 mM Tris, 50 mM NaCl, pH 7.2). Finally, 100 µL tetramethylbenzidine (TMB) (cat. 438OH, Kem-En-Tec Diagnostics, Denmark) was added to each well and the plate was incubated for 15 minutes at 20° C. in darkness shaking. The enzymatic reaction was stopped by adding 0.18 M H₂SO₄ and absorbance was measured at 450 nm with 650 nm as reference. A calibration curve was plotted using a 4-parameter logistic curve fit. Data were analyzed using the SoftMax Pro v.6.3 software."}, "[3]": {"molecular_target": "T3, ADAMTS15 (A15) peptide LLARDQCNLH (human)", "T3 construct": "A peptide was tested, not the whole protein", "T3 peptide": "LLARDQCNLH", "assay": "competitive SPARC-M ELISA, peptide as competitor", "description": "as §1, §2"}, "[4]": {"molecular_target": "T4, Von Willebrand factor (VWF) peptide LLARDCQDHS (human)", "T4 construct": "A peptide was tested, not the whole protein", "T4 peptide": "LLARDCQDHS", "assay": "competitive SPARC-M ELISA, peptide as competitor", "description": "as §1, §2"}, "[5]": {"molecular_target": "T5, Glucagon (GCG) peptide LAARDFINWL (human)", "T5 construct": "A peptide was tested, not the whole protein", "T5 peptide": "LAARDFINWL", "assay": "competitive SPARC-M ELISA, peptide as competitor", "description": "as §1, §2"}, "[6]": {"molecular_target": "T6, Recombinant human SPARC, full-length, uncleaved (human, UniProt P09486 18-303)", "T6 construct": "Incubated in MMP buffer without protease and then measured in the SPARC-M ELISA; also called recombinant full-length SPARC; osteonectin", "T6 sequence (looked up)": "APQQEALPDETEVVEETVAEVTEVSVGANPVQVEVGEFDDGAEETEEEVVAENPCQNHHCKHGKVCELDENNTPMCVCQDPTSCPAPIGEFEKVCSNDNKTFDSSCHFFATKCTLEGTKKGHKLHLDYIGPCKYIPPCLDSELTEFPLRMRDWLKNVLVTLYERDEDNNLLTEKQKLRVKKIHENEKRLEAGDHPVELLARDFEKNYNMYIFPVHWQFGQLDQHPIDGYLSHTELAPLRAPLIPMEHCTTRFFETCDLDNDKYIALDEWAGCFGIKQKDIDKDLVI", "assay": "competitive SPARC-M ELISA on recombinant SPARC incubated without protease"}, "[7]": {"molecular_target": "T7, Standard peptide LLARDFEKNY (human)", "T7 construct": "Synthetic peptide from Genscript with a free N-terminus; also called calibration peptide", "T7 peptide": "LLARDFEKNY", "assay": "preliminary competitive ELISA, hybridoma supernatant, 10 ng/mL biotinylated coating peptide", "description": "The reactivity of the monoclonal antibody was evaluated by displacement using human serum samples and the standard peptide ([…]; SEQ ID NO: 1) in a preliminary ELISA using 10 ng/mL biotinylated coating peptide on streptavidin-coated microtiter plates (Roche, Basel, Switzerland, cat. #11940279) and the supernatant from the antibody producing monoclonal hybridoma cells. The clone with the best reactivity towards the standard peptide was purified using protein-G-columns according to the manufacturer’s instructions (GE Healthcare Life Sciences, Little Chalfont, UK, cat. #17-0404-01 )."}}, "note": "No end group written: not given here."}
{"binder": "SPARC-M monoclonal antibody (antibody, mouse IgG1, kappa, V domains shown, also called the antibody; the selected antibody) VH: EVKLVESGGGLVKPGGSLKLSCAASGFTFSRNAMSWVRQTPEKRLEWVASISTSDNTYYPDSVKGRFTISKDNARNILYLQMSSLRSEDTAMYYCASGFDVGAYWGQGTLVTVSA VL: DVLMTQTPLSLPVSLGDQASISCRSSQSIVHSNGNTYLEWYLQKPGQSPKLLIYKVSNRFSGVPDRFSGSGSGTDFTLKISRVDTEDLGVYYCFQGSHVPLTFGAGTKLELKR", "values": [{"measurement": "binding result", "setting": "[1]", "value": "no binding"}, {"measurement": "binding result", "setting": "[2]", "value": "no binding"}, {"measurement": "binding result", "setting": "[3]", "value": "no binding"}, {"measurement": "binding result", "setting": "[4]", "value": "no binding"}, {"measurement": "binding result", "setting": "[5]", "value": "no binding"}, {"measurement": "binding result", "setting": "[6]", "value": "no binding"}, {"measurement": "binding result", "setting": "[7]", "value": "binds"}]}
